Data on 14 molecules can be found in patent US20250186602A1, “HUMANIZED ANTIBODY THAT BONDS TO EVA1 PROTEIN OR FUNCTIONAL FRAGMENT THEREOF, ANTIBODY-DRUG CONJUGATE AND CHIMERIC ANTIGEN RECEPTOR” (CURED INC., priority 2022, published 2025).

Assay [1] addresses T1, hEva1-mouse Fc (human, UniProt O60487 27-154, limits assumed).
T1 construct: SPR analyte; the '1' is probably the first concentration (1 nM); also called hEva1-mouse Fc1 (so in the source); not shown: mouse Fc
T1 sequence: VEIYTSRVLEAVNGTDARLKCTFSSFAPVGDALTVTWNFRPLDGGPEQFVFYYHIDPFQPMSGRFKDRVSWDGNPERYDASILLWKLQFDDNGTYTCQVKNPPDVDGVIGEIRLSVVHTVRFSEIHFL
In words: SPR (BiaCore T200), single-cycle kinetics; antibody captured by anti-human IgG on CM5 chip, hEva1-mouse Fc as analyte. The method, then: (§1) The dissociation constants and association constants of the humanized antibodies and the like were analyzed by using surface plasmon resonance (SPR, product name: BiaCore T200 (manufactured by GE healthcare)).
Specifically, first, human IgG capture antibodies were immobilized on a CM5 chip by an amine coupling method. […] Then, the kinetics analysis on the anti-Eval antibody and hEva1 was conducted by a single-cycle method using the following measurement conditions.
A general note: SPR reads the build-up and loss of mass on a sensor chip optically.

The subject of assay [2] is hEva1-mouse Fc. The assay is described as follows: Surface plasmon resonance kinetics analysis (BiaCore T200, single-cycle). In kind it is binding, human. Particulars: SPR, antibody captured 5 nM, analyte hEva1-mouse Fc 1-250 nM, HBS-EP+ pH 7.4. The method, then:
as §1
Specifically, first, human IgG capture antibodies were immobilized on a CM5 chip by an amine coupling method. This immobilization was conducted in both reference cells and active cells. Then, the kinetics analysis on the anti-Eval antibody and hEva1 was conducted by a single-cycle method using the following measurement conditions.
• Sample compartment temperature: 10° C. • Running buffer: HBS-EP+buffer, pH 7.4 • Capturing molecule: Human IgG antibody, reference & active cells • Ligand: Various antibodies 5 nM, active cells only • Analyte: hEva1-mouse Fc1, 5, 25, 125, 250 nM, reference & active cells • Regeneration buffer: 3M MgCl2, reference & active cells • 3 cycles of Blanks (Analyte zero concentration)

B1: humanized B2E5-48 antibody H3-L4 (antibody, human IgG1, V domains shown)
VH: QVQLVQSGSELKKPGASVKVSCKASGYTFTNYWMHWVRQAPGQGLEWIGEINPTNGGTDYNEGFTGRFVLSVDKSSSTAYLQISSLKAEDTAVYYCTIYTTALDYWGQGTLVTVSS
VL: DIQLTQSPSFLSASVGDRVTITCRASSSVGYMYWYQQKPGKAPKPLIYVTSNLASGVPSRFSGSGSGTEYTLTISSLQPEDFATYYCQQWSSNPPTFGQGTKLEIK
notes: Human IgG1 heavy chain and human kappa light chain vectors; made in HEK293T cells
Broadly, the Kd is the equilibrium constant for the complex coming apart. High values mean lower affinity, low ones higher affinity. The koff is a measure of how fast the partners let go of each other. A high value points to a short-lived complex. As usually defined, the kon is a measure of how fast the partners come together. In the case of B1, in assay [1], the affinity, expressed as Kd, was 873 nM; the koff amounted to 0.0138 s⁻¹; the kon turned out to be 15800 M⁻¹ s⁻¹.

B2: humanized B2E5-48 antibody H4-L3 (antibody, human IgG1, V domains shown)
VH: QVQLVQSGSELKKPGASVKVSCKASGYTFTNYWMHWVRQAPGQGLEWMGEINPTNGGTDYNEGFTGRFVFSVDKSVSTAYLQISSLKAEDTAVYYCTIYTTALDYWGQGTLVTVSS
VL: QIQLTQSPSFLSASVGDRVTITCRASSSVGYMYWYQQKPGKAPKPLIYVTSNLASGVPSRFSGSGSGTEYTLTISSLQPEDFATYYCQQWSSNPPTFGQGTKLEIK
notes: as for B1
For the molecule B2, in assay [1], the Kd was found to be 877 nM, the koff came to 0.0136 s⁻¹ and the kon was found to be 15500 M⁻¹ s⁻¹.

B3: humanized B2E5-48 antibody H1-L4 (antibody, human IgG1, V domains shown)
VH: QVQLVQSGAEVKKPGASVKVSCKASGYTFTNYWMHWVRQAPGQGLEWIGEINPTNGGTDYNEKFQGRVTLTVDKSSSTAYMELSSLRSEDTAVYYCTIYTTALDYWGQGTLVTVSS
VL: DIQLTQSPSFLSASVGDRVTITCRASSSVGYMYWYQQKPGKAPKPLIYVTSNLASGVPSRFSGSGSGTEYTLTISSLQPEDFATYYCQQWSSNPPTFGQGTKLEIK
notes: as for B1
Turning to B3, in assay [1], binding was put at a Kd of 533 nM, the koff turned out to be 0.00931 s⁻¹ and the kon came to 17500 M⁻¹ s⁻¹.

B4: humanized B2E5-48 antibody H3-L3 (antibody, human IgG1, V domains shown)
VH: QVQLVQSGSELKKPGASVKVSCKASGYTFTNYWMHWVRQAPGQGLEWIGEINPTNGGTDYNEGFTGRFVLSVDKSSSTAYLQISSLKAEDTAVYYCTIYTTALDYWGQGTLVTVSS
VL: QIQLTQSPSFLSASVGDRVTITCRASSSVGYMYWYQQKPGKAPKPLIYVTSNLASGVPSRFSGSGSGTEYTLTISSLQPEDFATYYCQQWSSNPPTFGQGTKLEIK
notes: as for B1
Turning to B4, in assay [1], the affinity, expressed as Kd, was 835 nM; the koff came out at 0.0125 s⁻¹; the kon is 15000 M⁻¹ s⁻¹.

B5: humanized B2E5-48 antibody H4-L4 (antibody, human IgG1, V domains shown)
VH: QVQLVQSGSELKKPGASVKVSCKASGYTFTNYWMHWVRQAPGQGLEWMGEINPTNGGTDYNEGFTGRFVFSVDKSVSTAYLQISSLKAEDTAVYYCTIYTTALDYWGQGTLVTVSS
VL: DIQLTQSPSFLSASVGDRVTITCRASSSVGYMYWYQQKPGKAPKPLIYVTSNLASGVPSRFSGSGSGTEYTLTISSLQPEDFATYYCQQWSSNPPTFGQGTKLEIK
notes: as for B1
With B5, in assay [1], the Kd was 994 nM, the dissociation rate constant (koff) amounted to 0.0152 s⁻¹ and the kon was found to be 15300 M⁻¹ s⁻¹.

B6: humanized B2E5-48 antibody H2-L2 (antibody, human IgG1, V domains shown)
VH: QVQLVQSGAEVKKPGASVKVSCKASGYTFTNYWMHWVRQAPGQGLEWMGEINPTNGGTDYNEKFQGRVTMTVDKSTSTAYMELSSLRSEDTAVYYCTIYTTALDYWGQGTLVTVSS
VL: EIVLTQSPATLSLSPGERATLSCRASSSVGYMYWYQQKPGQAPRPLIYVTSNRATGIPARFSGSGSGTDYTLTISSLEPEDFAVYYCQQWSSNPPTFGQGTKLEIK
notes: Human IgG1 heavy chain and human kappa light chain vectors; made in HEK293T cells; also called B2E5-H2-L2
Turning to B6, in assay [1], the affinity, expressed as Kd, was 467 nM; the koff came to 0.0092 s⁻¹; the kon was found to be 19700 M⁻¹ s⁻¹.

B7: H1-L4: humanized B2E5-48 IgG1, VH H1 (SEQ ID NO: 15), VL L4 (SEQ ID NO: 8) (antibody, V domains shown)
VH: QVQLVQSGAEVKKPGASVKVSCKASGYTFTNYWMHWVRQAPGQGLEWIGEINPTNGGTDYNEKFQGRVTLTVDKSSSTAYMELSSLRSEDTAVYYCTIYTTALDYWGQGTLVTVSS
VL: DIQLTQSPSFLSASVGDRVTITCRASSSVGYMYWYQQKPGKAPKPLIYVTSNLASGVPSRFSGSGSGTEYTLTISSLQPEDFATYYCQQWSSNPPTFGQGTKLEIK
modifications: Variable Region of Heavy Chain 1 (Humanized B2E5-48); Variable Region of Light Chain 4 (Humanized B2E5-48)
In assay [2], B7 gave a ka of 17470 M⁻¹ s⁻¹ and a kd of 0.009313 s⁻¹.

B8: humanized B2E5-48 antibody H2-L4 (antibody, human IgG1, V domains shown)
VH: QVQLVQSGAEVKKPGASVKVSCKASGYTFTNYWMHWVRQAPGQGLEWMGEINPTNGGTDYNEKFQGRVTMTVDKSTSTAYMELSSLRSEDTAVYYCTIYTTALDYWGQGTLVTVSS
VL: DIQLTQSPSFLSASVGDRVTITCRASSSVGYMYWYQQKPGKAPKPLIYVTSNLASGVPSRFSGSGSGTEYTLTISSLQPEDFATYYCQQWSSNPPTFGQGTKLEIK
notes: as for B1
In assay [1], B8 showed a Kd of 529 nM, a koff of 0.0091 s⁻¹ and a kon of 17200 M⁻¹ s⁻¹.

B9: H2-L4: humanized B2E5-48 IgG1, VH H2 (SEQ ID NO: 13), VL L4 (SEQ ID NO: 8) (antibody, V domains shown)
VH: QVQLVQSGAEVKKPGASVKVSCKASGYTFTNYWMHWVRQAPGQGLEWMGEINPTNGGTDYNEKFQGRVTMTVDKSTSTAYMELSSLRSEDTAVYYCTIYTTALDYWGQGTLVTVSS
VL: DIQLTQSPSFLSASVGDRVTITCRASSSVGYMYWYQQKPGKAPKPLIYVTSNLASGVPSRFSGSGSGTEYTLTISSLQPEDFATYYCQQWSSNPPTFGQGTKLEIK
modifications: Variable Region of Heavy Chain 2 (Humanized B2E5-48); Variable Region of Light Chain 4 (Humanized B2E5-48)
As for B9, in assay [2], the ka was 17200 M⁻¹ s⁻¹ and the kd was determined as 0.009101 s⁻¹.

B10: humanized B2E5-48 antibody H2-L3 (antibody, human IgG1, V domains shown)
VH: QVQLVQSGAEVKKPGASVKVSCKASGYTFTNYWMHWVRQAPGQGLEWMGEINPTNGGTDYNEKFQGRVTMTVDKSTSTAYMELSSLRSEDTAVYYCTIYTTALDYWGQGTLVTVSS
VL: QIQLTQSPSFLSASVGDRVTITCRASSSVGYMYWYQQKPGKAPKPLIYVTSNLASGVPSRFSGSGSGTEYTLTISSLQPEDFATYYCQQWSSNPPTFGQGTKLEIK
notes: as for B1
In assay [1], B10 returned a Kd of 428 nM, a koff of 0.00886 s⁻¹ and a kon of 20700 M⁻¹ s⁻¹.

B11: H2-L3: humanized B2E5-48 IgG1, VH H2 (SEQ ID NO: 13), VL L3 (SEQ ID NO: 10) (antibody, V domains shown)
VH: QVQLVQSGAEVKKPGASVKVSCKASGYTFTNYWMHWVRQAPGQGLEWMGEINPTNGGTDYNEKFQGRVTMTVDKSTSTAYMELSSLRSEDTAVYYCTIYTTALDYWGQGTLVTVSS
VL: QIQLTQSPSFLSASVGDRVTITCRASSSVGYMYWYQQKPGKAPKPLIYVTSNLASGVPSRFSGSGSGTEYTLTISSLQPEDFATYYCQQWSSNPPTFGQGTKLEIK
modifications: Variable Region of Heavy Chain 2 (Humanized B2E5-48); Variable Region of Light Chain 3 (Humanized B2E5-48)
For the molecule B11, in assay [2], the ka was 20710 M⁻¹ s⁻¹ and the kd was 0.008858 s⁻¹.

B12: H3-L2: humanized B2E5-48 IgG1, VH H3 (SEQ ID NO: 16), VL L2 (SEQ ID NO: 7) (antibody, V domains shown)
VH: QVQLVQSGSELKKPGASVKVSCKASGYTFTNYWMHWVRQAPGQGLEWIGEINPTNGGTDYNEGFTGRFVLSVDKSSSTAYLQISSLKAEDTAVYYCTIYTTALDYWGQGTLVTVSS
VL: EIVLTQSPATLSLSPGERATLSCRASSSVGYMYWYQQKPGQAPRPLIYVTSNRATGIPARFSGSGSGTDYTLTISSLEPEDFAVYYCQQWSSNPPTFGQGTKLEIK
modifications: Variable Region of Heavy Chain 3 (Humanized B2E5-48); Variable Region of Light Chain 2 (Humanized B2E5-48)
In assay [2], B12 gave a ka of 16770 M⁻¹ s⁻¹ and a kd of 0.0132 s⁻¹.

B13: humanized B2E5-48 antibody H3-L2 (antibody, human IgG1, V domains shown)
VH: QVQLVQSGSELKKPGASVKVSCKASGYTFTNYWMHWVRQAPGQGLEWIGEINPTNGGTDYNEGFTGRFVLSVDKSSSTAYLQISSLKAEDTAVYYCTIYTTALDYWGQGTLVTVSS
VL: EIVLTQSPATLSLSPGERATLSCRASSSVGYMYWYQQKPGQAPRPLIYVTSNRATGIPARFSGSGSGTDYTLTISSLEPEDFAVYYCQQWSSNPPTFGQGTKLEIK
notes: as for B1
In assay [1], B13 registered a Kd of 787 nM, a koff of 0.0132 s⁻¹ and a kon of 16800 M⁻¹ s⁻¹.

B14: humanized B2E5-48 antibody H4-L2 (antibody, human IgG1, V domains shown)
VH: QVQLVQSGSELKKPGASVKVSCKASGYTFTNYWMHWVRQAPGQGLEWMGEINPTNGGTDYNEGFTGRFVFSVDKSVSTAYLQISSLKAEDTAVYYCTIYTTALDYWGQGTLVTVSS
VL: EIVLTQSPATLSLSPGERATLSCRASSSVGYMYWYQQKPGQAPRPLIYVTSNRATGIPARFSGSGSGTDYTLTISSLEPEDFAVYYCQQWSSNPPTFGQGTKLEIK
notes: as for B1
Regarding B14, in assay [1], the Kd was found to be 768 nM, the koff was 0.0146 s⁻¹ and the kon came out at 19000 M⁻¹ s⁻¹.
